According to paper PMC12488921:
Where “and” joins values, the source holds several entries; their conditions need not be identical. Equal values may be shown once.

Tests used:
Human DNAJB6b (human) [1] = target: Human DNAJB6b (human) (UniProt O75190); experiment: mass photometry; dissociation kinetics: 34 μM non-labeled JB6 diluted to 50 nM at time zero, 22 and 37 °C; total micelle mass (N > 2) in 60 s of data collection against time
Human DNAJB6b (human) [2] = target: Human DNAJB6b (human) (UniProt O75190); experiment: mass photometry; JB6 equilibrated at different concentrations (1 to 100 μM), 20 mM NaP, 0.2 mM EDTA, pH 8.0, room temperature; samples above 200 nM diluted to 200 nM less than a minute before a 60 s measurement; also 5 μM JB6 with 0-1.25 M NaCl

Chain of Human DNAJB6b, O75190-2 1-241 (natural protein; other documents disagree on this pair) (O75190 other isoform, or with tags, fused parts or gaps): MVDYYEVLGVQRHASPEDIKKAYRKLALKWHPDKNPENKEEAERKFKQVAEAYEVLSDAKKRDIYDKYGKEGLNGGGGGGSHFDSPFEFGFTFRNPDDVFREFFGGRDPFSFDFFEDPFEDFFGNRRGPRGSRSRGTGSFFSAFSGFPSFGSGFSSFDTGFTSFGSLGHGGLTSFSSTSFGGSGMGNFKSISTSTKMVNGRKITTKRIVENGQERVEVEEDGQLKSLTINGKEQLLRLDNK

With “Human DNAJB6b, O75190-2 1-241 (natural protein; other documents disagree on this pair)” the time scale of micelle dissociation at 37 °C (Human DNAJB6b (human) [1]) was 20 min and the stoichiometry N (Human DNAJB6b (human) [2]) was 20 and 40.
